The text below walks through data of PMC3153034.

For the assay, the target named is recombinant Smc04048 cytochrome c from Sinorhizobium meliloti (Sinorhizobium meliloti). Nature of the assay: SEC. Background: SEC sorts molecules by how far they enter the pores of the column.

Take “recombinant Smc04048 cytochrome c from Sinorhizobium meliloti (natural protein)”: the stoichiometry N amounted to 2.

The stoichiometry N is a count of units in the complex or per binding partner.
